Source: paper PMC11162321

Legend:
[1] = target: F-actin (rabbit skeletal muscle α-actin, filamentous) (rabbit (Oryctolagus cuniculus)) (UniProt P68135); assay: single-molecule TIRF microscopy
[2] = target: F-actin (rabbit skeletal muscle α-actin, filamentous) (rabbit (Oryctolagus cuniculus)) (UniProt P68135); assay: fluorescence polarisation
[3] = target: F-actin (rabbit skeletal muscle α-actin, filamentous) (rabbit (Oryctolagus cuniculus)) (UniProt P68135); assay: cryo-EM structure
[4] = target: F-actin (rabbit skeletal muscle α-actin, filamentous) (rabbit (Oryctolagus cuniculus)) (UniProt P68135); assay: other fluorescence titration

Sequence of SipAC (SipA residues 425-685), unlabelled (P0CL52 425-685): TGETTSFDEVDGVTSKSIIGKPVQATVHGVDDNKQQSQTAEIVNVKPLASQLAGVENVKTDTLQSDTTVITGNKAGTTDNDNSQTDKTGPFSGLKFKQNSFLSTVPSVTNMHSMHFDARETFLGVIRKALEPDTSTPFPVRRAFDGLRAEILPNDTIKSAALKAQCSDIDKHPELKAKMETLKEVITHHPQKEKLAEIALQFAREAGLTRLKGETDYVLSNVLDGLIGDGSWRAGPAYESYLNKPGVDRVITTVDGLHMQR
Sequence of Alexa-647-SipAC (SipA residues 425-685 labelled with Alexa Fluor 647 maleimide) (P0CL52 425-685): as above
Sequence of FM-SipAC (SipA residues 425-685 labelled with fluorescein maleimide) (P0CL52 425-685): as above

Substance | Kd [1] | koff [1] | Kd [2] | koff [2] | stoichiometry N (SipAC per actin) [3] | Kd [4]
Alexa-647-SipAC (SipA residues 425-685 labelled with Alexa Fluor 647 maleimide) (from UniProt P0CL52 425-685) (domain or fragment) | 100 pM | 0.00038 s⁻¹ |  |  |  | 
FM-SipAC (SipA residues 425-685 labelled with fluorescein maleimide) (from UniProt P0CL52 425-685) (domain or fragment) |  |  | 900 pM | 0.00304 s⁻¹ |  | 
SipAC (SipA residues 425-685), unlabelled (from UniProt P0CL52 425-685) (domain or fragment) |  |  | 5000 pM |  | 0.5 | 180 pM
